Experimental data: article PMC4319926, “Deciphering the Stepwise Binding Mode of HRG1β to HER3 by Surface Plasmon Resonance and Interaction Map” (PLoS ONE, 2015)

Key:
Settings in all cases: both partners purified
HER3-Avi-biotin = target: T1, HER3-Avi-biotin (human, UniProt P21860 20-643, single biotin on the C-terminal Avi-Tag); assay: SPR; assay D: Biacore T200, 25°C; HER3-Avi-biotin captured via streptavidin on CAP chip, no mAb208; HRG1β injected at 105-1.3 nM, 60 µl/min, 5 min association, 10 min dissociation; same sample buffer; evaluated by 1:1 Langmuir fit, two-state reaction model and Interaction Map
T1 construct: HER3 (ErbB3) extracellular domain with C-terminal Avi-Tag, singly biotinylated, MW 70 kDa; Printed MW 70 kDa; It was captured through streptavidin on a Biotin CAPture chip; also called bi-ECD3; biotinylated HER3-Avi; source: gift of pRED, Roche Diagnostics GmbH (Dr. Jürgen Schanzer); not shown: Avi-Tag, C-terminal, kept

[1] = target: T2, human HER3 extracellular domain (human, UniProt P21860 20-643); assay: SPR; assay C: Biacore T200, 25°C; HER3 bound to mAb208 captured by immobilised rabbit anti-mouse antibody on CM5; HRG1β injected at 105-1.3 nM, 60 µl/min, 5 min association, 10 min dissociation; 10 mM HEPES pH 7.4, 150 mM NaCl, 1 mM EDTA, Tween 20, 1 mg/ml carboxymethyldextran; evaluated by 1:1 Langmuir fit (apparent), two-state reaction model and Interaction Map
T2 construct: HER3 (ErbB3) receptor extracellular domain, human, MW 68 kDa; Printed MW 68 kDa; also called ECD3; HER3-ECD; source: from Dr. Birgit Bossenmaier, Roche Diagnostics GmbH, Penzberg

[2] = target: T2, human HER3 extracellular domain; assay: as above; remark: listed apart in the source

T2 sequence (P21860 20-643): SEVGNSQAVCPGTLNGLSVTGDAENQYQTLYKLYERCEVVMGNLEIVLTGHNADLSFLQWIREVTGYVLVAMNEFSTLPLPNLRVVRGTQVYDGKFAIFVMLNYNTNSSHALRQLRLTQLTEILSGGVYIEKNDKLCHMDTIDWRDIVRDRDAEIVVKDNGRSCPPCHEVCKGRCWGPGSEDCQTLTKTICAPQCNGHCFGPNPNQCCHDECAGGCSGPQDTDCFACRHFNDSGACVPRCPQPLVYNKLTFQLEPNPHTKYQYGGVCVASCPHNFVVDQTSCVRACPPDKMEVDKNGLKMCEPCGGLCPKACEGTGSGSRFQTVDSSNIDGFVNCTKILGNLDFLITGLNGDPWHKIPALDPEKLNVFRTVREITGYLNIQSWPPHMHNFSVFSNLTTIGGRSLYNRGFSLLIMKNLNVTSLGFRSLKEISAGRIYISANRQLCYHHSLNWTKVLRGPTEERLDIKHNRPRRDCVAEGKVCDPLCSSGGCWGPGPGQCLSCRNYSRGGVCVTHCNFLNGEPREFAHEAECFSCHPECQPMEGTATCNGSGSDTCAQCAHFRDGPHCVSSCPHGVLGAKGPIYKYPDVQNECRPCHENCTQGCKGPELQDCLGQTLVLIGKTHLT
T1 sequence (P21860 20-643): as above

Kd (HER3-Avi-biotin): 0.38 nM
koff (HER3-Avi-biotin): 0.0046 s⁻¹
kon (HER3-Avi-biotin): 1.2e+07 M⁻¹ s⁻¹
stoichiometry N (HER3-Avi-biotin): 0.84
stoichiometry N [1]: 0.5
Kd [2]: 0.33 nM
koff [2]: 0.04 s⁻¹
kon [2]: 1.2e+08 M⁻¹ s⁻¹
stoichiometry N [2]: 0.56
B1: human heregulin β1 (ligand, UniProt Q02297-6 20-246, looked up)
chain: SGKKPESAAGSQSPALPPRLKEMKSQESAAGSKLVLRCETSSEYSSLRFKWFKNGNELNRKNKPQNIKIQKKPGKSELRINKASLADSGEYMCKVISKLGNDSASANITIVESNEIITGMPASTEGAYVSSESPIRISVSTEGANTSSSTSTSTTGTSHLVKCAEKEKTFCVNGGECFMVKDLSNPSRYLCKCPNEFTGDRCQNYVMASFYKHLGIEFMEAEELYQK
notes: heregulin β1 (neuregulin-1, beta 1 isoform), human, MW 25 kDa; The printed MW of 25 kDa is larger than an EGF-like domain alone; also called HRG1β; Heregulin 1 beta; source: from Dr. Birgit Bossenmaier, Roche Diagnostics GmbH, Penzberg
